Assay results: patent US20120269817A1 (Bayer, published 2012)
Where a chain is given by its changes, count along the chain named.

B1: TP-2F9 Fab (Fab, V domains shown)
VH: QVQLVESGGGLVQPGGSLRLSCAASGFTFYKYAMHWVRQAPGKGLEWVSGIQYDGSYTYYADSVKGRFTISRDNSKNTLYLQMNSLRAEDTAVYYCARYYCKCVDLWGQGTLVTVSS
VL: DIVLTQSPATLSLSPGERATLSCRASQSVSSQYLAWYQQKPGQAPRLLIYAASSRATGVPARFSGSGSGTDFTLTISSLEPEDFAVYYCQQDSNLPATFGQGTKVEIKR
notes: Human Fab from HuCal Gold, expressed in E. coli TG1
B2: TP-2G2 Fab (Fab, V domains shown)
VH: QVQLVESGGGLVQPGGSLRLSCAASGFTFSSYAMNWVRQAPGKGLEWVSAILSDGSSTSYADSVKGRFTISRDNSKNTLYLQMNSLRAEDTAVYYCARYPDWGWYTDVWGQGTLVTVSS
VL: DIELTQPPSVSVAPGQTARISCSGDNIRKFYVHWYQQKPGQAPVLVIYGTNKRPSGIPERFSGSNSGNTATLTISGTQAEDEADYYCQSYDSKFNTVFGGGTKLTVLG
notes: as for B1
B3: TP-2B4 Fab (Fab, V domains shown)
VH: QVQLVESGGGLVQPGGSLRLSCAASGFTFSNYSMTWVRQAPGKGLEWVSGISYNGSNTYYADSVKGRFTISRDNSKNTLYLQMNSLRAEDTAVYYCARIYYMNLLAGWGQGTLVTVSS
VL: DIELTQPPSVSVAPGQTARISCSGDALGTYYAYWYQQKPGQAPVLVIYGDMNRPSGIPERFSGSNSGNTATLTISGTQAEDEADYYCQSYDAGVKPAVFGGGTKLTVLG
notes: as for B1
B4: TP-2G4 Fab (Fab, V domains shown)
VH: QVQLVESGGGLVQPGGSLRLSCAASGFTFSSYAMTWVRQAPGKGLEWVSNISYSGSNTYYADSVKGRFTISRDNSKNTLYLQMNSLRAEDTAVYYCARVGYYYGFDYWGQGTLVTVSS
VL: DIELTQPPSVSVAPGQTARISCSGDALRKHYVYWYQQKPGQAPVLVIYGDNNRPSGIPERFSGSNSGNTATLTISGTQAEDEADYYCQSYDKPYPILVFGGGTKLTVLG
notes: as for B1
B5: TP-3B3 Fab (Fab, V domains shown)
VH: B4 VH with A33G, T35H, S54M, Y59N, V99G, G100L, Y101F, Y102P, Y103G, G104Y
VL: DIELTQPASVSVAPGQTARISCSGDNLRSKYAHWYQQKPGQAPVLVIYGDNNRPSGIPERFSGSNSGNTATLTISGTQAEDEADYYCSAYAMGSSPVFGGGTKLTVLG
notes: as for B1
B6: TP-4A9 Fab (Fab, V domains shown)
VH: QVQLVESGGGLVQPGGSLRLSCAASGFTFSSYGMSWVRQAPGKGLEWVSLISGVSSSTYYADSVKGRFTISRDNSKNTLYLQMNSLRAEDTAVYYCARSYLGYFDVWGQGTLVTVSS
VL: DIELTQPPSVSVAPGQTARISCSGDALGKYYASWYQQKPGQAPVLVIYGDNKRPSGIPERFSGSNSGNTATLTISGTQAEDEADYYCQSYTTRSLVFGGGTKLTVLG
notes: as for B1
B7: TP-3F1 Fab (Fab, V domains shown)
VH: QVQLVQSGAEVKKPGESLKISCKGSGYSFTDYWIGWVRQMPGKGLEWMGIIQPSDSDTNYSPSFQGQVTISADKSISTAYLQWSSLKASDTAMYYCARFMWWGKYDSGFDVWGQGTLVTVSS
VL: DIELTQPPSVSVAPGQTARISCSGDNIGSYFASWYQQKPGQAPVLVIYDDSNRPSGIPERFSGSNSGNTATLTISGTQAEDEADYYCEGSNVFGGGTKLTVLG
notes: as for B1
B8: TP-3A2 Fab (Fab, V domains shown)
VH: QVQLVESGGGLVQPGGSLRLSCAASGFTFSNYYLSWVRQAPGKGLEWVSGISYNGSSTNYADSVKGRFTISRDNSKNTLYLQMNSLRAEDTAVYYCARMWRYSLGADSWGQGTLVTVSS
VL: DIELTQPPSVSVAPGQTARISCSGDNIGSRYAYWYQQKPGQAPVVVIYDDSDRPSGIPERFSGSNSGNTATLTISGTQAEDEADYYCAAYTFYARTVFGGGTKLTVLG
notes: as for B1
B9: TP-2D7 Fab (Fab, V domains shown)
VH: QVQLQQSGPGLVKPSQTLSLTCAISGDSVSSNSAAWGWIRQSPGRGLEWLGLIYYRSKWYNDYAVSVKSRITINPDTSKNQFSLQLNSVTPEDTAVYYCARFGDTNRNGTDVWGQGTLVTVSS
VL: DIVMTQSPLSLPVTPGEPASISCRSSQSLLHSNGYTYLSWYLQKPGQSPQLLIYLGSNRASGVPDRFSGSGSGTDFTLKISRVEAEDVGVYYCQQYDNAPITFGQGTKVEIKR
notes: as for B1
B10: TP-3C3 Fab (Fab, V domains shown)
VH: B9 VH with L52V, F102A, G103R, D104A, T105K, N106K, R107S, N108G, T110F, V112Y
VL: DIQMTQSPSSLSASVGDRVTITCRASQSINPYLNWYQQKPGKAPKLLIYAASNLQSGVPSRFSGSGSGTDFTLTISSLQPEDFAVYYCQQLDNRSITFGQGTKVEIKR
notes: as for B1
B11: TP-2B1 Fab (Fab, V domains shown)
VH: QVQLVESGGGLVQPGGSLRLSCAASGFTFSSYSMSWVRQASGKGLEWVSSIKGSGSNTYYADSVKGRFTISRDNSKNTLYLQMNSLRAEDTAVYYCARNGGLIDVWGQGTLVTVSS
VL: DIELTQPPSVSVAPGQTARISCSGDNLGNKYAHWYQQKPGQAPVLVIYYDNKRPSGIPERFSGSNSGNTATLTISGTQAEDEADYYCQSWTPGSNTMVFGGGTRLTVLG
notes: as for B1
B12: TP-2B8 Fab (Fab, V domains shown)
VH: QVQLVQSGAEVKKPGASVKVSCKASGYTFTGNSMHWVRQAPGQGLEWMGTIFPYDGTTKYAQKFQGRVTMTRDTSISTAYMELSSLRSEDTAVYYCARGVHSYFDYWGQGTLVTVSS
VL: DIELTQPPSVSVAPGQTARISCSGDNLRGYYASWYQQKPGQAPVLVIYEDNNRPSGIPERFSGSNSGNTATLTISGTQAEDEADYYCQSWDSPYVHVFGGGTKLTVLG
notes: as for B1
B13: TP-2A6 Fab (Fab, V domains shown)
VH: QVQLVESGGGLVQPGGSLRLSCAASGFTFSRYAMSWVRQAPGKGLEWVSSIISSSSETYYADSVKGRFTISRDNSKNTLYLQMNSLRAEDTAVYYCARLMGYGHYYPFDYWGQGTLVTVSS
VL: DIELTQPPSVSVAPGQTARISCSGDKIGSKYVYWYQQKPGQAPVLVIYDSNRPSGIPERFSGSNSGNTATLTISGTQAEDEADYYCASYDSIYSYWVFGGGTKLTVLG
notes: as for B1
B14: TP-2B9 Fab (Fab, V domains shown)
VH: QVQLQQSGPGLVKPSQTLSLTCAISGDSVSSNSAAWGWIRQSPGRGLEWLGMIYHRSKWYNDYAVSVKSRITINPDTSKNQFSLQLNSVTPEDTAVYYCARYSSIGHMDYWGQGTLVTVSS
VL: DIQMTQSPSSLSASVGDRVTITCRASQSIRSYLAWYQQKPGKAPKLLIYKASNLQSGVPSRFSGSGSGTDFTLTISSLQPEDFAVYYCHQYSDSPVTFGQGTKVEIKR
notes: as for B1
B15: TP-2E3 Fab (Fab, V domains shown)
VH: B14 VH with H55Y, Y102V, S103N, S104Q, I105Y, G106T, H107S, M108S
VL: DIALTQPASVSGSPGQSITISCTGTSSDIGGYNYVSWYQQHPGKAPKLMIYGVNYRPSGVSNRFSGSKSGNTASLTISGLQAEDEADYYCSSADKFTMSIVFGGGTKLTVLG
notes: as for B1
B16: TP-2A10 Fab (Fab, V domains shown)
VH: QVQLVESGGGLVQPGGSLRLSCAASGFTFTSYSMNWVRQAPGKGLEWVSAISYTGSNTHYADSVKGRFTISRDNSKNTLYLQMNSLRAEDTAVYYCARAFLGYKESYFDIWGQGTLVTVSS
VL: DIELTQPPSVSVAPGQTARISCSGDKLGKKYVHWYQQKPGQAPVLVIYGDDKRPSGIPERFSGSNSGNTATLTISGTQAEDEADYYCQAWGSISRFVFGGGTKLTVLG
notes: as for B1
B17: TP-3A3 Fab (Fab, V domains shown)
VH: QVQLVESGGGLVQPGGSLRLSCAASGFTFNNNAISWVRQAPGKGLEWVSAINSSSSSTSYADSVKGRFTISRDNSKNTLYLQMNSLRAEDTAVYYCARGHHRGHSWASFIDYWGQGTLVTVSS
VL: DIELTQPPSVSVAPGQTARISCSGDNIGSKYVHWYQQKPGQAPVVVIYEDSDRPSGIPERFSGSNSGNTATLTISGTQAEDEADYYCQSWDKSEGYVFGGGTKLTVLG
notes: as for B1

Columns and labels:
BSA = molecular target: T1, BSA (bovine, UniProt P02769 25-607); assay: ELISA
T1 construct: also called bovine serum albumin
Protocol: (§1) To select antibody clones that bind to human TFPI, Fab genes of the phage clones from the second and third round of panning were subcloned into a bacterial expression vector and expressed in E. coli strain TG1. The bacterial lysate was added to the wells of the human TFPI-coated Maxisorp plates. After washing, HRP-conjugated goat anti-human Fab was used as a detection antibody and the plates were developed by adding AmplexRed (Invitrogen) with hydrogen peroxide. A signal of at least five-fold higher than the background was considered as positive. The cross reactivity of the anti-human TFPI antibodies to mouse TFPI was determined by a similar mouse TFPI-binding ELISA. The plates were coated with mouse TFPI (R&D System), BSA and lysozyme. The later two antigens were used as negative controls.

[1] = molecular target: T2, human tissue factor pathway inhibitor (TFPI) (human, UniProt P10646 29-304, limits assumed); assay: ELISA, Fab lysate on coated human TFPI
T2 construct: Bought protein; also called human TFPI; hTFPI
T2 sequence (looked up): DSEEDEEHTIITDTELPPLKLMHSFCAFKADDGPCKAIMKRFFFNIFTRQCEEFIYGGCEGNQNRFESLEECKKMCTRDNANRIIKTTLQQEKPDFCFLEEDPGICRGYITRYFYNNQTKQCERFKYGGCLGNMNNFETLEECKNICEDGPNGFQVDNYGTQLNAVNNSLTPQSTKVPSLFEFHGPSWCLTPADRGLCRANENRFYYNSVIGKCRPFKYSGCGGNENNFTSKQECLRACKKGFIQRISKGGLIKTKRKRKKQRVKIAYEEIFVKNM
Protocol: as §1

[2] = molecular target: T2, human tissue factor pathway inhibitor …; assay: ELISA, Fab on coated TFPI
Protocol: as §1
(§2) Purified Fab antibodies were used to determine EC₅₀ of anti-TFPI antibodies to human or mouse TFPI. EC₅₀ was assessed in an ELISA, similarly as described above. The results were analyzed using SoftMax. The binding affinity of anti-TFPI antibodies was determined in a Biacore assay. Briefly, the antigen, either human or mouse TFPI, was immobilized on the CM5-chips using the amine coupling kit (GE HealthCare) according to the instructions of the manufacturer. The amount of immobilized TFPI was adjusted to the mass of the antigen to give approximate 300 RU. The antibody Fabs were analyzed in mobile phase and at least five different concentrations (0.1, 0.4, 1.6, 6.4 and 25 nM) of the purified antibodies were used in the Biacore assay. The kinetics and binding affinity were calculated using Biacore T100 Evaluation software.

[3] = molecular target: T2, human tissue factor pathway inhibitor …; assay: Biacore, TFPI on CM5 chip, Fab in mobile phase
Protocol: as §2

T1 sequence (P02769 25-607 limits assumed): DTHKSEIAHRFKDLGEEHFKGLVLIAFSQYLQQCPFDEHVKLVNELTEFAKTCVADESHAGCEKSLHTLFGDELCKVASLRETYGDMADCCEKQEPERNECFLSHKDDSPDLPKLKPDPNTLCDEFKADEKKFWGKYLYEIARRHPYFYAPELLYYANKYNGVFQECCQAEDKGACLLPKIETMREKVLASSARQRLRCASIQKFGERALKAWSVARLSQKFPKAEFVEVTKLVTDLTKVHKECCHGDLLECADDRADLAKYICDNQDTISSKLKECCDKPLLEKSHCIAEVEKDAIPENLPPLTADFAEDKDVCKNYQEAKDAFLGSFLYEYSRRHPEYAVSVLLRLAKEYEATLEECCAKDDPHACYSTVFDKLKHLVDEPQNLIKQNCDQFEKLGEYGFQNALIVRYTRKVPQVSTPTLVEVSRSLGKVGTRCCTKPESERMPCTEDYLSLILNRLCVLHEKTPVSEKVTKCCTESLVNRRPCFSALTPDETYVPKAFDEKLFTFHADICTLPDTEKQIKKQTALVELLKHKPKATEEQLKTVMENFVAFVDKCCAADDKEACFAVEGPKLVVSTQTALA

Row | Binder | binding result (BSA) | binding result [1] | EC50 [2] | Kd [3]
1 | B1 | no binding | binds |  | 
2 | B2 | no binding | binds |  | 
3 | B3 | no binding | binds |  | 
4 | B4 | no binding | binds |  | 
5 | B5 | no binding | binds |  | 
6 | B6 | no binding |  | 0.17 nM | 7.6 nM
7 | B7 | no binding |  |  | 
8 | B8 | no binding | binds |  | 
9 | B9 | no binding | binds |  | 
10 | B10 | no binding | binds |  | 
11 | B11 | no binding | binds |  | 
12 | B12 | no binding | binds |  | 
13 | B13 | no binding | binds |  | 
14 | B14 | no binding | binds |  | 
15 | B15 | no binding | binds |  | 
16 | B16 | no binding | binds |  | 
17 | B17 | no binding | binds |  | 
